Laboratory results: patent US20190015483A1 (CSL BEHRING RECOMBINANT FACILITY, published 2019)

Molecular target: T1, recombinant Factor VIII (CSL627, rVIII-SingleChain) (Homo sapiens (Human), UniProt P00451 20-2351)
T1 construct: also called FVIII
T1 sequence: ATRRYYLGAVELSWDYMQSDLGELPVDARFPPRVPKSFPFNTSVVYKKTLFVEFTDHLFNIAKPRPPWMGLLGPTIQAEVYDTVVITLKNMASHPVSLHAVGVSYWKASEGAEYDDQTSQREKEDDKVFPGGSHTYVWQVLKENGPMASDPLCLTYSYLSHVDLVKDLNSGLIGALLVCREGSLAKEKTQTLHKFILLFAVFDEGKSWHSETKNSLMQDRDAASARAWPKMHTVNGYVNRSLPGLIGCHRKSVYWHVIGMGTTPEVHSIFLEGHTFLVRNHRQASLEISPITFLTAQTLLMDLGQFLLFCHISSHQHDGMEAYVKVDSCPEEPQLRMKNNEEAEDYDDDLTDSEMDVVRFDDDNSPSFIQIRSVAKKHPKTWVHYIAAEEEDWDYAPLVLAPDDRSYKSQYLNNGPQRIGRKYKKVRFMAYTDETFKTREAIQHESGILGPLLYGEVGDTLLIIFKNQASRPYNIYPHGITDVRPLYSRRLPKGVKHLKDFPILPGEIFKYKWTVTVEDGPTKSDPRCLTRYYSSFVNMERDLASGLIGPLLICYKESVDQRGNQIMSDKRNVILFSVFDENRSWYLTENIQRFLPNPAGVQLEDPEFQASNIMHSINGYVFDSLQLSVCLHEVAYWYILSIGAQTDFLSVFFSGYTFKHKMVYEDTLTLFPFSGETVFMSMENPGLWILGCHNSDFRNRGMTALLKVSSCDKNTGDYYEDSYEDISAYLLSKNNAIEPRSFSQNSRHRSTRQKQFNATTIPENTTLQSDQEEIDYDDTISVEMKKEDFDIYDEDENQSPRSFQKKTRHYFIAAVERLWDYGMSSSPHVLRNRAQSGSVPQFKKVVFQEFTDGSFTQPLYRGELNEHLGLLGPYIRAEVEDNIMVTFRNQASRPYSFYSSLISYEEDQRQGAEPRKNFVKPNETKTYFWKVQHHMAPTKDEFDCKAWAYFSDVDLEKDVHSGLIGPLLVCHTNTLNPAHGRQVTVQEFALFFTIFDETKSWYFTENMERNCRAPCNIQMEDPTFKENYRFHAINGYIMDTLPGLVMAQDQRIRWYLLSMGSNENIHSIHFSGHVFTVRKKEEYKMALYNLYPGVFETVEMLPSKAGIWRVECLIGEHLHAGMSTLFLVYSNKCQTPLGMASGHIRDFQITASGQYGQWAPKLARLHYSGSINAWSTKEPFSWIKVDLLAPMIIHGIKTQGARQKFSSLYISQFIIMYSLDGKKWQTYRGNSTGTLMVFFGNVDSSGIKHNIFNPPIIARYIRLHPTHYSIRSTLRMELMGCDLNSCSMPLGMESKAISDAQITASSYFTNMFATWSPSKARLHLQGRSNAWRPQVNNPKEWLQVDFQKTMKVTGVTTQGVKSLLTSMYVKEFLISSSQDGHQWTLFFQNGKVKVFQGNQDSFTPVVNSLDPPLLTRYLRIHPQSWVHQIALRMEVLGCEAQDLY
Test: SPR, anti-His capture
Experimental: Binding kinetics were investigated by surface plasmon resonance using a Biacore 4000 biosensor at 37° C. Each mutant was captured from cell culture medium to a density of 40-150 RU on a CM-5 sensor chip pre-immobilised with anti-His antibody (14,000 RU). In an initial screening study, FVIII was injected over the captured mutants for 5 minutes at 1 nM and dissociation monitored for 5 minutes.
All sensorgrams were double referenced by subtraction of signals from a reference spot (containing only immobilised anti His antibody) and from a blank injection. Binding kinetics were determined by fitting the double referenced sensorgrams to a 1:1 kinetic model.

B1: Hu-vWF[764-1270]-8His S764P-K773Y (other)
chain: PLSCRPPMVYLVCPADNLRAEGLECTKTCQNYDLECMSMGCVSGCLCPPGMVRHENRCVALERCPCFHQGKEYAPGETVKIGCNTCVCRDRKWNCTDHVCDATCSTIGMAHYLTFDGLKYLFPGECQYVLVQDYCGSNPGTFRILVGNKGCSHPSVKCKKRVTILVEGGEIELFDGEVNVKRPMKDETHFEVVESGRYIILLLGKALSVVWDRHLSISVVLKQTYQEKVCGLCGNFDGIQNNDLTSSNLQVEEDPVDFGNSWKVSSQCADTRKVPLDSSPATCHNNIMKQTMVDSSCRILTSDVFQDCNKLVDPEPYLDVCIYDTCSCESIGDCACFCDTIAAYAHVCAQHGKVVTWRTATLCPQSCEERNLRENGYECEWRYNSCAPACQVTCQHPEPLACPVQCVEGCHAHCPPGKILDELLQTCVDPEDCPVCEVAGRRFASGKKVTLNPSDPEHCQICHCDVVNLTCEACQEPGGLVVPPTDAPVSPTTLYVEDISEPPLHDFHHHHHHHH
- Kd: 0.0835 nM
- koff: 0.00136 s⁻¹
- kon: 1.63e+07 M⁻¹ s⁻¹

B2: Hu-vWF[764-1270]-8His S764P-L765A (other)
chain: PASCRPPMVKLVCPADNLRAEGLECTKTCQNYDLECMSMGCVSGCLCPPGMVRHENRCVALERCPCFHQGKEYAPGETVKIGCNTCVCRDRKWNCTDHVCDATCSTIGMAHYLTFDGLKYLFPGECQYVLVQDYCGSNPGTFRILVGNKGCSHPSVKCKKRVTILVEGGEIELFDGEVNVKRPMKDETHFEVVESGRYIILLLGKALSVVWDRHLSISVVLKQTYQEKVCGLCGNFDGIQNNDLTSSNLQVEEDPVDFGNSWKVSSQCADTRKVPLDSSPATCHNNIMKQTMVDSSCRILTSDVFQDCNKLVDPEPYLDVCIYDTCSCESIGDCACFCDTIAAYAHVCAQHGKVVTWRTATLCPQSCEERNLRENGYECEWRYNSCAPACQVTCQHPEPLACPVQCVEGCHAHCPPGKILDELLQTCVDPEDCPVCEVAGRRFASGKKVTLNPSDPEHCQICHCDVVNLTCEACQEPGGLVVPPTDAPVSPTTLYVEDISEPPLHDFHHHHHHHH
- Kd: 0.906 nM
- koff: 0.0278 s⁻¹
- kon: 3.07e+07 M⁻¹ s⁻¹

B3: Hu-vWF[764-1270]-8His S764P-L765F (other)
chain: PFSCRPPMVKLVCPADNLRAEGLECTKTCQNYDLECMSMGCVSGCLCPPGMVRHENRCVALERCPCFHQGKEYAPGETVKIGCNTCVCRDRKWNCTDHVCDATCSTIGMAHYLTFDGLKYLFPGECQYVLVQDYCGSNPGTFRILVGNKGCSHPSVKCKKRVTILVEGGEIELFDGEVNVKRPMKDETHFEVVESGRYIILLLGKALSVVWDRHLSISVVLKQTYQEKVCGLCGNFDGIQNNDLTSSNLQVEEDPVDFGNSWKVSSQCADTRKVPLDSSPATCHNNIMKQTMVDSSCRILTSDVFQDCNKLVDPEPYLDVCIYDTCSCESIGDCACFCDTIAAYAHVCAQHGKVVTWRTATLCPQSCEERNLRENGYECEWRYNSCAPACQVTCQHPEPLACPVQCVEGCHAHCPPGKILDELLQTCVDPEDCPVCEVAGRRFASGKKVTLNPSDPEHCQICHCDVVNLTCEACQEPGGLVVPPTDAPVSPTTLYVEDISEPPLHDFHHHHHHHH
- Kd: 0.0373 nM
- koff: 0.000632 s⁻¹
- kon: 1.69e+07 M⁻¹ s⁻¹

B4: Hu-vWF[764-1270]-8His S764P-L765H (other)
chain: PHSCRPPMVKLVCPADNLRAEGLECTKTCQNYDLECMSMGCVSGCLCPPGMVRHENRCVALERCPCFHQGKEYAPGETVKIGCNTCVCRDRKWNCTDHVCDATCSTIGMAHYLTFDGLKYLFPGECQYVLVQDYCGSNPGTFRILVGNKGCSHPSVKCKKRVTILVEGGEIELFDGEVNVKRPMKDETHFEVVESGRYIILLLGKALSVVWDRHLSISVVLKQTYQEKVCGLCGNFDGIQNNDLTSSNLQVEEDPVDFGNSWKVSSQCADTRKVPLDSSPATCHNNIMKQTMVDSSCRILTSDVFQDCNKLVDPEPYLDVCIYDTCSCESIGDCACFCDTIAAYAHVCAQHGKVVTWRTATLCPQSCEERNLRENGYECEWRYNSCAPACQVTCQHPEPLACPVQCVEGCHAHCPPGKILDELLQTCVDPEDCPVCEVAGRRFASGKKVTLNPSDPEHCQICHCDVVNLTCEACQEPGGLVVPPTDAPVSPTTLYVEDISEPPLHDFHHHHHHHH
- Kd: 0.555 nM
- koff: 0.00642 s⁻¹
- kon: 1.16e+07 M⁻¹ s⁻¹
